The source of these data is paper PMC2580753.

Read-outs that look alike come from different tables or passages of the source.

Common to all, as to assay: SPR
(SPR reads the build-up and loss of mass on a sensor chip optically.)

The target in assay [1] is mIgA1κ (monomeric myeloma IgA1, kappa light chain) (UniProt P01876). Particulars: pH 7.4, 25 °C, 150 mM NaCl, TBS-P: 20 mM Tris.
Assay [2] addresses Fcα (IgA1-Fc core fragment, CH2-CH3) (UniProt P01876). Particulars: pH 7.4, 25 °C, 150 mM NaCl, TBS-P: 20 mM Tris.
Assay [3] addresses mIgA1κ (monomeric myeloma IgA1, kappa light chain) (UniProt P01876). The conditions noted are these: pH 7.4, 25 °C, 150 mM NaCl, TBS-P: 20 mM Tris. The source holds these as a separate data set.
Assay [4] concerns the target Deglycosylated mIgA1κ (N-glycans removed enzymatically) (human).
Assay [5] addresses Monomeric myeloma patient-derived IgA1κ (mIgA1κ) (human).
The target of assay [6] is Monomeric IgA1 (Mce), a naturally undergalactosylated myeloma IgA1 protein (human).
Assay [7] addresses Monomeric myeloma patient-derived IgA1λ (mIgA1λ) (human).
In assay [8] the target is Monomeric myeloma patient-derived IgA1κ (mIgA1κ) (human). This is another data set of the same source.
For assay [9], the target named is Deglycosylated mIgA1κ (N-glycans removed enzymatically) (human). This is another data set of the same source.
The target of assay [10] is Monomeric myeloma patient-derived IgA1κ (mIgA1κ) (human). This is another data set of the same source.

Soluble recombinant FcαRI ectodomain, sequence (P24071 22-227): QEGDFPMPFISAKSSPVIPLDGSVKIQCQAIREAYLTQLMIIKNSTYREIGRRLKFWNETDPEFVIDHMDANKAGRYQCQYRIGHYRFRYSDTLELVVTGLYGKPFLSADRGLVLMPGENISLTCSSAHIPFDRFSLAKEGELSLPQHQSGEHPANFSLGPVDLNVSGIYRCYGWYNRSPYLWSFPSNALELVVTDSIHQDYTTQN
mIgA1κ (monomeric myeloma IgA1, kappa light chain), sequence (P01876 whole entry, the tested form may be a part): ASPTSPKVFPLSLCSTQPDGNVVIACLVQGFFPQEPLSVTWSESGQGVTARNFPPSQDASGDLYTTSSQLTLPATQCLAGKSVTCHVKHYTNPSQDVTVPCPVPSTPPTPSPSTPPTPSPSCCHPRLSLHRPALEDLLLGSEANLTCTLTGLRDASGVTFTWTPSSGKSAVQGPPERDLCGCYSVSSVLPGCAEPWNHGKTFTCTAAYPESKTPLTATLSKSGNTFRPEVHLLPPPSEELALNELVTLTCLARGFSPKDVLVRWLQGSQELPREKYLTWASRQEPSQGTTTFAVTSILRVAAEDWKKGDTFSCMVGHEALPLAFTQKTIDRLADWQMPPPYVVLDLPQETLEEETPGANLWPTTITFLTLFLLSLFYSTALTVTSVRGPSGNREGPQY
Fcα (IgA1-Fc core fragment, CH2-CH3), sequence (P01876 whole entry, the tested form may be a part): as above

Turning to FcαRI (CD89) soluble ectodomain, in assay [1], the k1off turned out to be 0.0266 s⁻¹, the k1on turned out to be 355000 M/s, the k2off turned out to be 0.074 s⁻¹ and the k2on was 304000 M/s. In assay [2], this substance yielded a k1off of 0.0278 s⁻¹, a k1on of 461000 M/s, a k2off of 0.054 s⁻¹ and a k2on of 447000 M/s. Also, in assay [3], the k1off was found to be 0.0267 s⁻¹, the k1on is 317000 M/s, the k2off stood at 0.096 s⁻¹ and the k2on was found to be 315000 M/s.

In [4], “Soluble recombinant FcαRI ectodomain (from UniProt P24071 22-227) (receptor)” yielded a KD1 (first binding event) of 78.4 nM, a KD2 (second binding event) of 320 nM, a k1off (first binding event) of 0.0258 s⁻¹ and a k1on (first binding event) of 329000 M/s. The k2on (second binding event) in assay [4] amounted to 187000 M/s. In assay [5], the k1off (first binding event) came out at 0.0267 s⁻¹, the k1on (first binding event) is 317000 M/s and the k2on (second binding event) turned out to be 315000 M/s. In assay [6], this substance displayed a KD1 (first binding event) of 72.3 nM, a KD1 (two-site equilibrium model) of 40.8 nM, a KD2 (second binding event) of 222 nM and a KD2 (two-site equilibrium model) of 403 nM. In [7], this substance returned a KD1 (two-site equilibrium model) of 47.6 nM, a KD2 (second binding event) of 195 nM, a KD2 (two-site equilibrium model) of 371 nM and a k1off (first binding event) of 0.0254 s⁻¹. In assay [7], this substance yielded a k1on (first binding event) of 312000 M/s, a k2off (second binding event) of 0.102 s⁻¹ and a k2on (second binding event) of 525000 M/s. In addition, in assay [8], the KD1 (first binding event) stood at 74.9 nM, the KD1 (two-site equilibrium model) was 40.2 nM, the KD1 at pH 5.5 (first binding event) was found to be 837 nM and the KD2 (second binding event) came to 244 nM. In [8], this substance returned a KD2 (two-site equilibrium model) of 452 nM, a KD2 at pH 5.5 (second binding event) of 2.53 μM, a k1off (first binding event) of 0.0266 s⁻¹ and a k1on (first binding event) of 355000 M/s. In assay [8], the k2on (second binding event) was found to be 304000 M/s. Also, in [9], the KD1 (two-site equilibrium model) amounted to 42.6 nM and the KD2 (two-site equilibrium model) worked out at 582 nM. In assay [10], this substance showed a KD1 (two-site equilibrium model) of 45 nM and a KD2 (two-site equilibrium model) of 571 nM.
